Measurements reported in patent publication US20050148069A1, “IGF-1 instructs multipotent adult CNS neural stem cells to an oligodendroglial lineage” (priority 2003, published 2005).

Test system: adult hippocampus-derived neural progenitor cells
Test: in vitro differentiation analysis of neural progenitor cells (immunocytochemistry for lineage markers)
Type: cell-based, rat
Protocol: The neural progenitor cells isolated from the hippocampus of female Fischer 344 used in this study have been characterized previously (Gage et al., 1995; Palmer et al., 1997). The whole brain-derived neural stem cells from PIO ICR mice were isolated and cultured according to the methods as described, with slight modifications. Cells were cultured as previously described (Gage et al., 1995; Ray et al., 1993). Cells between passages 10 and 20 were used for in vitro differentiation analyses. To induce differentiation, cells were plated into 4-well chamber slides at a density of 55,000-75,000 cells per well and were allowed to proliferate in N2-supplemented (Invitrogen) DMEM:F12 (Omega Scientific) medium containing 20 ng/ml FGF-2 (PeproTech, Inc.) for 24 hours. FGF-2 was then withdrawn and cells were subsequently treated with differentiation media. […] For IGF-induction experiments, cells were trypsinized, washed with 1× PBS, and plated into insulin-free N2 medium. […] In some cultures, BrdU (2.5 μM, Sigma) was added to label dividing cells, and Q-VD-OPh (2 μM, Enzyme Systems Products) was added to prevent apoptosis.
Cells were fixed with 4% paraformaldehyde, followed by immunocytochemical staining as described (Palmer et al., 1999). Labeled cells were visualized using a Nikon E800 upright microscope or a Nikon E600 inverted microscope (Nikon Inc.) and a Spot RT CCD camera (Diagnostic Instruments Inc.). 4′,6-diamidino-2-phenylindole (DAPI) was used to identify individual cells. Quantification of cell phenotypes was with StereoInvestigator (MicroBrightfield Inc.); for each marker, 500-1000 cells were sampled systematically from standardized fields at 40×magnification. For quantification of live/dead cells, images were taken of cultures live-stained with propidum iodide (1 μg/ml; Molecular Probes) and Hoescht 33342 (1 μg/ml; Sigma) at 10×magnification, and cells were counted using Image-Pro (Media Cybernetics). The following primary antibodies were used: rabbit anti-Tuj1 (1:7500;Covance), mouse anti-RIP (1:25-1:75; Hybridoma Bank); guinea pig anti-GFAP (1:500-1:2500; Advanced Immunochemical, Inc.); rabbit anti-MBP (1:500; Chemicon International Inc.), rat anti-BrdU (1:400; Accurate). Secondary antibodies were all from Jackson ImmunoResearch and used at 1:250 dilution. The detection of BrdU in cultured cells required treatment in 2 N HCL at 37° C. for 30 min (Palmer et al., 1999). All experiments were independently replicated at least 3 times.

B1: Noggin: extracellular protein that binds BMP ligands, BMP antagonist (protein, UniProt Q13253 28-232, looked up)
Noggin: QHYLHIRPAPSDNLPLVDLIEHPDPIFDPKEKDLNETLLRSLLGGHYDPGFMATSPPEDRPGGGGGAAGGAEDLAELDQLLRQRPSGAMPSEIKGLEFSEGLAQGKKQRLSKKLRRKLQMWLWSQTFCPVLYAWNDLGSRFWPRYVKVGSCFSKRSCSVPEGMVCKPSKSVHLTVLRWRCQRRGGQRCGWIPIQYPIISECKCSC
500 ng/ml Noggin alone, insulin-free media
  differentiation or survival effects of Noggin alone: did not display any enhanced differentiation or survival effects
Noggin 500 ng/ml with BMP2 50 ng/ml and IGF-I 500 ng/ml
  reversal of BMP2 inhibition of oligodendrocyte differentiation: efficiently reversed the inhibitory effects of BMP signaling
Noggin 500 ng/ml with IGF-I 20-100 ng/ml
  percentage of oligodendrocytes vs IGF-I alone: significant increase in the percentage of oligodendrocytes
Noggin 500 ng/ml with IGF-I 500-1000 ng/ml
  percentage of RIP+ oligodendrocytes vs IGF-I alone: did not result in a significant change
